# Measurements published in US20150164984A1, “Colicins for Treating Bacterial Infections” (The University Court of the University of Glasgow, priority 2012, published 2015).
# Where a chain is given by its changes, count along the chain named. Names may count otherwise.
# B1: Colicin E3 (protein, listed as Escherichia coli)
# chain: MSGGDGRGHNTGAHSTSGNINGGPTGLGVGGGASDGSGWSSENNPWGGGSGSGIHWGGGSGHGNGGGNGNSGGGSGTGGNLSAVAAPVAFGFPALSTPGAGGLAVSISAGALSAAIADIMAALKGPFKFGLWGVALYGVLPSQIAKDDPNMMSKIVTSLPADDITESPVSSLPLDKATVNVNVRVVDDVKDERQNISVVSGVPMSVPVVDAKPTERPGVFTASIPGAPVLNISVNNSTPAVQTLSPGVTNNTDKDVRPAGFTQGGNTRDAVIRFPKDSGHNAVYVSVSDVLSPDQVKQRQDEENRRQQEWDATHPVEAAERNYERARAELNQANEDVARNQERQAKAVQVYNSRKSELDAANKTLADAIAEIKQFNRFAHDPMAGGHRMWQMAGLKAQRAQTDVNNKQAAFDAAAKEKSDADAALSSAMESRKKKEDKKRSAENNLNDEKNKPRKGFKDYGHDYHPAPKTENIKGLGDLKPGIPKTPKQNGGGKRKRWTGDKGRKIYEWDSQHGELEGYRASDGQHLGSFDPKTGNQLKGPDPKRNIKKYL
# B2: Colicin E1 (protein, listed as Escherichia coli)
# chain: METAVAYYKDGVPYDDKGQVIITLLNGTPDGSGSGGGGGKGGSKSESSAAIHATAKWSTAQLKKTQAEQAARAKAAAEAQAKAKANRDALTQRLKDIVNEALRHNASRTPSATELAHANNAAMQAEDERLRLAKAEEKARKEAEAAEKAFQEAEQRRKEIEREKAETERQLKLAEAEEKRLAALSEEAKAVEIAQKKLSAAQSEVVKMDGEIKTLNSRLSSSIHARDAEMKTLAGKRNELAQASAKYKELDELVKKLSPRANDPLQNRPFFEATRRRVGAGKIREEKQKQVTASETRINRINADITQIQKAISQVSNNRNAGIARVHEAEENLKKAQNNLLNSQIKDAVDATVSFYQTLTEKYGEKYSKMAQELADKSKGKKIGNVNEALAAFEKYKDVLNKKFSKADRDAIFNALASVKYDDWAKHLDQFAKYLKITGHVSFGYDVVSDILKIKDTGDWKPLFLTLEKKAADAGVSYVVALLFSLLAGTTLGIWGIAIVTGILCSYIDKNKLNTINEVLGI
# B3: Colicin E9 (protein, listed as Escherichia coli)
# chain: MSGGDGRGHNTGAHSTSGNINGGPTGIGVSGGASDGSGWSSENNPWGGGSGSGIHWGGGSGRGNGGGNGNSGGGSGTGGNLSAVAAPVAFGFPALSTPGAGGLAVSISASELSAAIAGIIAKLKKVNLKFTPFGVVLSSLIPSEIAKDDPNMMSKIVTSLPADDITESPVSSLPLDKATVNVNVRVVDDVKDERQNISVVSGVPMSVPVVDAKPTERPGVFTASIPGAPVLNISVNDSTPAVQTLSPGVTNNTDKDVRPAGFTQGGNTRDAVIRFPKDSGHNAVYVSVSDVLSPDQVKQRQDEENRRQQEWDATHPVEAAERNYERARAELNQANEDVARNQERQAKAVQVYNSRKSELDAANKTLADAIAEIKQFNRFAHDPMAGGHRMWQMAGLKAQRAQTDVNNKQAAFDAAAKEKSDADAALSAAQERRKQKENKEKDAKDKLDKESKRNKPGKATGKGKPVGDKWLDDAGKDSGAPIPDRIADKLRDKEFKSFDDFRKAVWEEVSKDPELSKNLNPSNKSSVSKGYSPFTPKNQQVGGRKVYELHHDKPISQGGEVYDMDNIRVTTPKRHIDIHRGK
# B4: colicin E9 H575A: catalytically inactive colicin E9 variant (protein, UniProt P09883 1-582, looked up, variant H575A)
# Colicin-E9: B3 chain with H575A
# B5: Colicin D (protein, listed as Escherichia coli)
# chain: MSDYEGSGPTEGIDYGHSMVVWPSTGLISGGDVKPGGSSGIAPSMPPGWGDYSPQGIALVQSVLFPGIIRRIILDKELEEGDWSGWSVSVHSPWGNEKVSAARTVLENGLRGGLPEPSRPAAVSFARLEPASGNEQKIIRLMVTQQLEQVTDIPASQLPAAGNNVPVKYRLMDLMQNGTQYMAIIGGIPMTVPVVDAVPVPDRSRPGTNIKDVYSAPVSPNLPDLVLSVGQMNTPVLSNPEIQEEGVIAETGNYVEAGYTMSSNNHDVIVRFPEGSDVSPLYISTVEILDSNGLSQRQEAENKAKDDFRVKKEEAVARAEAEKAKAELFSKAGVNQPPVYTQEMMERANSVMNEQGALVLNNTASSVQLAMTGTGVWTAAGDIAGNISKFFSNALEKVTIPEVSPLLMRISLGALWFHSEEAGAGSDIVPGRNLEAMFSLSAQMLAGQGVVIEPGATSVNLPVRGQLINSNGQLALDLLKTGNESIPAAVPVLNAVRDTATGLDKITLPAVVGAPSRTILVNPVPQPSVPTDTGNHQPVPVTPVHTGTEVKSVEMPVTTITPVSDVGGLRDFIYWRPDAAGTGVEAVYVMLNDPLDSGRFSRKQLDKKYKHAGDFGISDTKKNRETLTKFRDAIEEHLSDKDTVEKGTYRREKGSKVYFNPNTMNVVIIKSNGEFLSGWKINPDADNGRIYLETGEL
# B6: Colicin Ia (protein, listed as Escherichia coli)
# chain: MSDPVRITNPGAESLGYDSDGHEIMAVDIYVNPPRVDVFHGTPPAWSSFGNKTIWGGNEWVDDSPTRSDIEKRDKEITAYKNTLSAQQKENENKRTEAGKRLSAAIAAREKDENTLKTLRAGNADAADITRQEFRLLQAELREYGFRTEIAGYDALRLHTESRMLFADADSLRISPREARSLIEQAEKRQKDAQNADKKAADMLAEYERRKGILDTRLSELEKNGGAALAVLDAQQARLLGQQTRNDRAISEARNKLSSVTESLNTARNALTRAEQQLTQQKNTPDGKTIVSPEKFPGRSSTNHSIVVSGDPRFAGTIKITTSAVIDNRANLNYLLSHSGLDYKRNILNDRNPVVTEDVEGDKKIYNAEVAEWDKLRQRLLDARNKITSAESAVNSARNNLSARTNEQKHANDALNALLKEKENIRNQLSGINQKIAEEKRKQDELKATKDAINFTTEFLKSVSEKYGAKAEQLAREMAGQAKGKKIRNVEEALKTYEKYRADINKKINAKDRAAIAAALESVKLSDISSNLNRFSRGLGYAGKFTSLADWITEFGKAVRTENWRPLFVKTETIIAGNAATALVALVFSILTGSALGIIGYGLLMAVTGALIDESLVEKANKFWGI
# What was measured:
# [1] = tested on: AIEC in the biofilm state; assay: MBEC biofilm assay, viability by XTT; format: cell-based, E. coli; settings: for ability to kill AIEC in the biofilm state: 6 additional strains of AIEC; for antimicrobial activity against biofilm-associated cells compared with ampicillin, metronidazole and rifaximin: all isolates; for relative effectiveness among colicins in killing AIEC in the biofilm state: multiple AIEC strains
# Text: The clinically relevant state for AI E. coli in the infected gut mucosa is the biofilm state in which bacteria show enhanced tolerance to antibiotics. We therefore tested the ability of colicins to kill AI E. coli in the biofilm state using the MBEC Physiology and Genetics Assay (Innovotech). In this assay, biofilm growth occurs on 96 identical pegs protruding from the lid of a 96-well microtitre plate.
# To determine the cytotoxicity of colicins against LF82 biofilms we compared the % cell survival of AIEC in biofilms treated with colicins with those exposed to antibiotics which are frequently prescribed in the treatment of Crohn's disease (FIG. 1). Biofilms were formed on the MBEC™ 96-peg plate platform for 24 h, then challenged for 1 h with 150 μl dilutions of the antibiotics (ampicillin, ciprofloxacin, metronidazole and rifaximin) and colicins (E1, E3, E9 and D) in sterile PBS in the concentration range 0.002 μg/ml-200 μg/ml. All dilutions of antimicrobials were done in triplicate and control antimicrobial-free biofilms were treated with 150 μl of sterile PBS. Following treatment, the viability of biofilm-associated cells was tested using the metabolic dye XTT. The XTT salt changes colour when it is metabolised by viable cells. This colour change can be compared to untreated antimicrobial-free biofilms, giving an indication of the percentage survival in biofilms exposed to the antimicrobials.
# We further tested the ability of colicins E1 (a pore-forming colicin) E3 (a rRNase), E9 (a DNase), D (a tRNase) and IA (a pore-forming colicin) to kill 6 additional strains of AIEC in the biofilm state.
# [2] = tested on: adherent invasive E. coli isolates (AIEC) 95, 419, 615 and LF82; assay: spot test of purified colicin on a growing lawn of cells (zones of inhibition); format: cell-based; settings: isolates 95, 419, 615 and LF82; 2 μl drop of 0.2 mg/ml colicin, 18 h
# Procedure: Briefly, 25 μl of a log phase bacterial culture (OD600=0.6) was added to 5 ml of molten 0.8% agarose and poured on top of an LB agar plate. A 2 μl drop of each colicin (0.2 mg/ml) was spotted onto the overlay plate. The plates were incubated for 18 h and examined for zones of inhibition. All E. coli isolates tested were sensitive to the cytotoxic activity of the four colicin proteins, as indicated by the presence of clear zones representing cell killing (not shown).
# [3] = tested on: intracellular E. coli LF82 in infected murine macrophages (J774); assay: macrophage model of AIEC infection, colony counts of intracellular bacteria; format: cell-based; settings: for killing of intracellular LF82 in infected macrophages: infected macrophages treated for 4 and 24 hours, FIG. 4
# Procedure: AI E. coli are able to infect and replicate within macrophages and epithelial cells. To determine if colicin E1 is able to kill intracellular bacteria raw murine macrophages (J774) were infected with AI E. coli LF82 and treated with colicin E1 (FIG. 3).
# Raw murine macrophages (J774) were grown in 24-well tissue culture plates in RPMI tissue culture media (containing 3% fetal calf serum, 1% […], 1% pen/strep) at 37° C. in 5% CO2 until the cells reached 70-80% confluency. The macrophages were then infected with E. coli LF82 at a multiplicity of infection of 50 (MOI 50). After 2 h of infection, the macrophages were exposed to the antibiotic gentamicin (100 μg/ml) to kill any bacteria outside the macrophage which hadn't successfully invaded the cell. The LF82-infected macrophages were then treated with colicin E1 (10, 0.1, 0.001 μg/ml) for 3 h at 37° C. The macrophages were then scraped from the surface of the plate, lysed with Triton X and the intra-cellular bacteria were plated on LB agar containing 50 μg/ml ampicillin for selection of LF82. The plates were incubated overnight at 37° C. and colony counts were performed.
# Experiments were performed as described for colicin E1 except that infected macrophages were treated with colicin for 4 and 24 hours.
# [4] = molecular target: outer membrane receptor BtuB (Escherichia coli, UniProt P06129); settings: read-out: affinity for outer membrane receptor BtuB; Housden et al., 2005; cited from earlier work
# Sequence of outer membrane receptor BtuB (P06129 21-614): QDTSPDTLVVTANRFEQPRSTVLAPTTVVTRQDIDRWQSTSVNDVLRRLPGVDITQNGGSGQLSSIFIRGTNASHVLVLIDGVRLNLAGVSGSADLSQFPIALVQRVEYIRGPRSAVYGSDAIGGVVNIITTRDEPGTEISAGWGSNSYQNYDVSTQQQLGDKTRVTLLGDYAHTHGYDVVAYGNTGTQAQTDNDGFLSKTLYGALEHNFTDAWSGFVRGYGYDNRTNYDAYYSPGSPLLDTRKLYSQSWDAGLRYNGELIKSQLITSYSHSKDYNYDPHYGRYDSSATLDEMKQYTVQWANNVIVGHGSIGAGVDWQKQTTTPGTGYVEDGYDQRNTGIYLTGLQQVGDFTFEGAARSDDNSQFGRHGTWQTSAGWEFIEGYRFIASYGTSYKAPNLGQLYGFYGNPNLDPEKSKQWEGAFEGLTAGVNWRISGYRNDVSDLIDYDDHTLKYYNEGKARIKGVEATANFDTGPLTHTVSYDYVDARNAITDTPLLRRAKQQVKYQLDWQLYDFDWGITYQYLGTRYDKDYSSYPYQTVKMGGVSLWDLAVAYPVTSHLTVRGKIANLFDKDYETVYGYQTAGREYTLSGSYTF
Molecule,ability to kill AIEC in the biofilm state [1],sensitivity of AIEC isolates in spot tests [2],"reduction in the number of bacteria recovered from the macrophages ([3]; 10 μg/ml, 3 h, LF82-infected J774 macrophages)","antimicrobial activity against biofilm-associated cells compared with ampicillin, metronidazole and rifaximin [1]",relative effectiveness among colicins in killing AIEC in the biofilm state [1],killing of intracellular LF82 in infected macrophages [3],Kd [4]
B1,good killing activity,sensitive,–,–,–,–,–
B2,good killing activity,sensitive,~80%,superior antimicrobial activity,most effective,–,–
B3,good killing activity,sensitive,–,superior antimicrobial activity,most effective,able to kill intracellular LF82,2 nM
B4,–,–,–,–,–,no killing,–
B5,good killing activity,sensitive,–,–,–,–,–
B6,good killing activity,–,–,–,–,–,–
